For series [1], the target named is JEV NS5 (Japanese encephalitis virus, UniProt P27395 2528-3432). The experiment in a line: EMSA. Particulars: protein: recombinant; label: radioactive. For orientation: In EMSA bound probe runs differently from free probe, usually more slowly.
Series [2] concerns the target SARS-CoV-2 nucleoprotein (SC_NP) (SARS-CoV-2, UniProt P0DTC9 1-419). The experiment in a line: EMSA. Particulars: protein: recombinant; chain copies: 2; label: radioactive.
Series [3] deals with YFV NS5 (Yellow fever virus, UniProt P03314 2507-3411). The series can be described thus: EMSA. As to conditions: protein: recombinant; label: radioactive.
The target of series [4] is T7 RNA polymerase (bacteriophage T7, UniProt P00573 1-883). As to conditions: label: radioactive.
Series [5] addresses HIV reverse transcriptase (HIV-rt) (HIV, UniProt P04585;P04585 588-1147;588-1027). Particulars: protein: recombinant; copies: 1;1; label: radioactive.

The values below come from PMC11696893, “Enzymatic synthesis of reactive RNA probes containing squaramate-linked cytidine or adenosine for bioconjugations and cross-linking with lysine-containing peptides and proteins”.

B1: 36_vRNA_1gCESQ (ssRNA)
RNA: GAUACUAAGGGAAUAAAUUGAGAGAGAUAAAUUUAU
modifications: C5 = 5-(ethoxysquaramate-linked) cytidine (CESQ)
With B1, the binding result is on record as “binds” in series [1]; “binds” in series [2]; “binds” in series [3]; “no binding” in series [4]; “binds” in series [5].
